Measured values: patent publication US6432920B1, “Nck SH3 binding peptides” (Cytogen Corporation, priority 1994, dated 2002)

Legend:
Src SH3-GST [1] = target: T1, Src SH3-GST (Homo sapiens, UniProt P12931); assay: Phage clone binding to immobilized GST-SH3 (elution titering / anti-phage ELISA); details: FIG. 14
T1 construct: Bacterially expressed Src SH3 glutathione-S-transferase (Src-GST) fusion protein was purified from bacterial lysates; made in house; host or cells: bacteria (pGEX vector)
Experimental: Library screens were performed as previously described. Kay, B. K., et al., in Gene (1993) 128:59-65. Briefly, 1'10^11 pfu TSAR 9, TSAR 12, or R8C phage in Buffer A were incubated in a Src SH3-GST-coated well for 2 hours. The wells were washed, and bound phage were eluted with 100 μL 50 mM glycine-HCl (pH 2.2), transferred to a new well, and neutralized with […] 200 mM NaHPO4 (pH 7.0). Recovered phage were used to infect 1×10^9 DH5αF′ E. coli cells in 20 mL 2×YT; the infected cells were grown overnight, resulting in a 1000- to 10,000-fold amplification of phage titer. Amplified phage were panned twice more, as above, excepting the amplification step. Binding phage recovered after the third round of panning were plated at a low density on a lawn of DH5αF′ E. coli cells to yield isolated plaques for clonal analysis. […]
(§1) Indeed, the ability of isolated phage clones to bind to several SH3 domains derived from a variety of different proteins can be investigated by the manner described above. […] From these experiments, the relative specificity of different Src SH3 binding clones for SH3 domains derived from other proteins is determined.
To evaluate the binding of isolates to various targets proteins, enzyme-linked-immuno-assays (ELISA) were also performed. […] Plates are read with a plate reader (Molecular Devices, Menlo Park, Calif.) at 405 nm wavelength. […]

Yes SH3 = target: T2, Yes SH3 (Homo sapiens, UniProt P07947); assay: Phage clone binding to immobilized GST-SH3 (anti-phage ELISA); details: FIG. 14
T2 construct: a construct expressing the SH3 domain of Yes was obtained from Dr. Marius Sudol (Rockefeller University); made in house; host or cells: bacteria (pGEX vector)
Experimental: as §1, with “above. GST-SH3 fusion proteins containing SH3 domains from a variety of different proteins are bound to microliter wells. An aliquot of the aforementioned phage stocks (50 μL) is introduced into wells containing the different GST-SH3 fusion proteins.” for “above.”
To evaluate the binding of isolates to various targets proteins, enzyme-linked-immuno-assays (ELISA) were also performed. […] Plates are read with a plate reader (Molecular Devices, Menlo Park, Calif.) at 405 nm wavelength.
Library screens were performed as described in Sparks, A., B., et al., in Methods in Enzymology, (1995) 255:498-509. […] The wells were washed five times with PBS+0.1% Tween 20, and bound phage were detected by anti-phage ELISA according to the manufacturer's instructions (Pharmacia, Piscataway, N.J.). […]
To explore further the capacity of SH3 domains to discriminate between different SH3 ligands, we investigated the binding of phage expressing various peptide ligands to a panel of SH3 domains. […] The wells were washed several times, and bound phage were detected with an anti-phage antibody (see FIG. 14). […]

Src SH3-GST [2] = target: T1, Src SH3-GST; assay: Biotinylated synthetic peptide binding ELISA to immobilized Src SH3-GST; details: not tested

T2 sequence (P07947 91-152 limits assumed): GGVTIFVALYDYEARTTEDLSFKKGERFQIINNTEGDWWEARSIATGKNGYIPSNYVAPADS

surmised binding to a variety of SH3 domains (Src SH3-GST [2])	Sequence	cross-reactivity of Src SH3 domain with phage clone selected with another SH3 domain (Src SH3-GST [1])	cross-reactivity of Yes SH3 domain with phage clone selected with another SH3 domain (Yes SH3)
–	MPPPVPPRPPGTL	cross-reacted	cross-reacted
strong but generic binding	RSTPAPPVPPRTTR	–	–
